Positions count from the first letter of the chain named. Numbers in names are those of the source.
B1: PPI42 (peptide)
chain: GFGCNGPWSEDDMKCHNHCKSIKGYKGGYCAKGGFLCKCY
notes: mutant of the fungal defensin plectasin (40 amino acids); numbers count on: the mature protein; Forms fibrils and gels by self-assembly; also called self-assembling variant PPI42; defensin-derived peptide PPI42; source: Pichia pastoris X-33 (pPICZαA), fermentation supernatant, purified by cation exchange chromatography
B2: PPI45 (peptide)
chain: B1 chain with S9N
notes: mutant of the fungal defensin plectasin, derived from PPI42 by S9N; numbers count on: the mature protein; S9N against the parent PPI42; also called PPI45:N9; source: Pichia pastoris X-33 (pPICZαA), fermentation supernatant, purified by cation exchange chromatography
B3: PPI47 (peptide)
chain: B1 chain with M13L, K14R
notes: mutant of the fungal defensin plectasin, derived from PPI42 by 13M14K to 13L14R; numbers count on: the mature protein; M13L and K14R against the parent PPI42; also called PPI47:L13 R14; source: Pichia pastoris X-33 (pPICZαA), fermentation supernatant, purified by cation exchange chromatography

Biological target: the molecule itself
Test: transmission electron microscopy; peptide solution at its CMC on a copper grid, stained with phosphotungstic acid; monomers to fibres

| Protein | binding result |
| --- | --- |
| B1 | binds |
| B2 | binds |
| B3 | binds |

Reference: publication PMC11764660, “Self-Assembled Peptide Hydrogels PPI45 and PPI47: Novel Drug Candidates for Staphylococcus aureus Infection Treatment” (Gels, 2025)
